Test [1] addresses T1, Activin A (homodimer of two inhibin βA subunits; R&D Systems, #338-AC) (human, UniProt P08476 311-426).
T1 construct: Bought protein; also called inhibin-βA dimer
T1 sequence: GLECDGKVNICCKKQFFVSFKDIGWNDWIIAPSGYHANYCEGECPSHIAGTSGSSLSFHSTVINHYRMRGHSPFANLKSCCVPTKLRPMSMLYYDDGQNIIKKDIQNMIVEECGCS
Briefly: SPR blocking: 5 nM Activin A + 15 nM binder over hActRIIA-hFc surface. As for the experimental part: (§1) The binding signal (RU) was measured at 150 seconds after the start of the injection, and this signal was subtracted by the measured RU value for a negative control reference surface to determine the specific binding signal.

The target of test [2] is T1, Activin A (homodimer of two inhibin βA …). Put plainly: SPR blocking: 5 nM Activin A + 30 nM binder over hActRIIA-hFc surface. As for the experimental part: as §1
Test [3] shares this target. Put plainly: SPR blocking: 5 nM Activin A + 60 nM binder over hActRIIA-hFc surface. As for the experimental part:
as §1

For test [4] the target is unchanged. Briefly: SPR blocking: 5 nM Activin A + 0 nM binder over Follistatin-288 surface. As for the experimental part: as §1
Test [5] shares this target. Put plainly: SPR blocking: 5 nM Activin A + 0.00 nM binder over hActRIIA-hFc surface. As for the experimental part:
as §1

Test [6] shares this target. Put plainly: SPR blocking: 5 nM Activin A + 0.94 nM binder over hActRIIA-hFc surface. As for the experimental part:
as §1

For test [7] the target is unchanged. Briefly: SPR blocking: 5 nM Activin A + 1.88 nM binder over hActRIIA-hFc surface. As for the experimental part:
as §1

The target is the same in test [8]. Briefly: SPR blocking: 5 nM Activin A + 3.75 nM binder over hActRIIA-hFc surface. As for the experimental part:
as §1

The target is the same in test [9]. Put plainly: SPR blocking: 5 nM Activin A + 7.50 nM binder over hActRIIA-hFc surface. As for the experimental part: as §1
The target is the same in test [10]. Put plainly: SPR blocking: 5 nM Activin A + 15 nM binder over Follistatin-288 surface. As for the experimental part:
as §1

Test [11] shares this target. Briefly: SPR blocking: 5 nM Activin A + 30 nM binder over Follistatin-288 surface. As for the experimental part: as §1
For test [12] the target is unchanged. Put plainly: SPR blocking: 5 nM Activin A + 60 nM binder over Follistatin-288 surface. As for the experimental part: as §1
The target is the same in test [13]. Put plainly: SPR blocking: 5 nM Activin A + 7.5 nM binder over Follistatin-288 surface. As for the experimental part:
as §1

Test [14] has the same target. Put plainly: SPR blocking: 5 nM Activin A + 0.94 nM binder over Follistatin-288 surface. As for the experimental part: as §1
Test [15] has the same target. Briefly: SPR blocking: 5 nM Activin A + 1.88 nM binder over Follistatin-288 surface. As for the experimental part: as §1
Test [16] has the same target. Briefly: SPR blocking: 5 nM Activin A + 3.75 nM binder over Follistatin-288 surface. As for the experimental part:
as §1

Test [17] shares this target. Put plainly: SPR blocking: 5 nM Activin A + 15 nM binder over hActRIIB-hFc (Control 4) surface.
Test [18] shares this target. Put plainly: SPR blocking: 5 nM Activin A + 30 nM binder over hActRIIB-hFc (Control 4) surface. As for the experimental part:
as §1

Test [19] shares this target. Put plainly: SPR blocking: 5 nM Activin A + 60 nM binder over hActRIIB-hFc (Control 4) surface. As for the experimental part: as §1
For test [20] the target is unchanged. Briefly: SPR blocking: 5 nM Activin A + 0.00 nM binder over hActRIIB-hFc (Control 4) surface. As for the experimental part: as §1
Test [21] has the same target. Briefly: SPR blocking: 5 nM Activin A + 0.94 nM binder over hActRIIB-hFc (Control 4) surface.
Test [22] has the same target. Put plainly: SPR blocking: 5 nM Activin A + 1.88 nM binder over hActRIIB-hFc (Control 4) surface. As for the experimental part:
as §1

Test [23] shares this target. Put plainly: SPR blocking: 5 nM Activin A + 3.75 nM binder over hActRIIB-hFc (Control 4) surface. As for the experimental part:
as §1

The target is the same in test [24]. Put plainly: SPR blocking: 5 nM Activin A + 7.50 nM binder over hActRIIB-hFc (Control 4) surface.
The target in test [25] is T2, Activin A (human, UniProt P08476 311-426).
T2 construct: Homodimer of two βA subunits; bought from R&D Systems (#338-AC); also called inhibin-βA dimer; human Activin A
T2 sequence: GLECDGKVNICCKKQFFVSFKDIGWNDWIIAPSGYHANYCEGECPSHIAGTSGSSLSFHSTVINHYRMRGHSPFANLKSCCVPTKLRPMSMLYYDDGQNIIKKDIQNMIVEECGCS
Briefly: SPR, captured mAb, 25C. As for the experimental part:
(§2) Antibody-antigen association was monitored for 240 seconds while dissociation in buffer was monitored for 600 seconds. Kinetic association and dissociation rate constants were determined by processing and fitting the data using Scrubber software version 2.0c. Binding equilibrium dissociation constants (KD) and dissociative half-lives (t_{1/2}) were then calculated from the kinetic rate constants as: KD (M)=kd/kₐ and t_{1/2} (min)=[ln 2/(60*kd)]. (NB=no binding observed under the conditions used; NT=not tested).

The target of test [26] is T2, Activin A. Put plainly: SPR, captured mAb, 37C. As for the experimental part:
as §2

Test [27] has as its target T2, Activin A. Briefly: SPR, captured mAb, 25C; no dissociation observed, kd fixed. As for the experimental part:
as §2

The target in test [28] is T2, Activin A. Put plainly: SPR, captured mAb, 37C; no dissociation observed, kd fixed. As for the experimental part: as §2

B1: H4H10442P2 (antibody, human IgG4, V domains shown)
VH: QVQLQESGPGLVKPSETLSITCTVSGGSFSSHFWTWIRQPPGKGLEWIGYLHYSGGTSYNPSLKSRVIISVDTSKNQFSLKLNSVTAADTAVYYCARARSGITFGGLIVPGSFDIWGQGTMVTVSS
VL: not shown
notes: H4H prefix means human IgG4 Fc
Regarding B1, the “% bound RU w/no inhibitor” value in test [1] was 113%; in [2], 117%; in test [3] it was 118%; in [4], 100%; in test [5], 100%; in test [6] it was 114%. The “% bound RU w/no inhibitor” value in [7] amounted to 114%; in test [8] it was 95%; in test [9] it was 105%; in test [10], 3%; in [11], 3%; in test [12], 3%. Besides, the “% bound RU w/no inhibitor” value stood at 3% in test [13]; 73% in test [14]; 46% in test [15]; 6% in [16]; 115% in test [17]; 122% in [18]. In addition, the “% bound RU w/no inhibitor” value in test [19] stood at 124%; in [20], 100%; in [21] it was 110%; in [22] it was 106%; in test [23], 88%; in test [24] it was 103%.

B2: H4H10447P2 (antibody, human IgG4, V domains shown)
VH: QVQLQESGPGLVKPSETLSLTCSVSGGSFSSHFWSWIRQPPGKGLEWIGYIHYSGGTNYNPSLKSRVTISVDTSKNQFSLKLTSVTAADTADYYCARAISGITFGGMIVPGSFDVWGEGTMVTVSS
VL: not shown
For the molecule B2, in the test with Activin A [25], the “Activin A-20 nM (RU)” value is 43 RU, the dissociation constant (Kd) was at most 0.0212 nM, the kon was found to be 2.36e+06 M⁻¹ s⁻¹ and the t1/2 is at least 3.85 h. Further, in the test with Activin A [26], the “Activin A-20 nM (RU)” value was 36 RU, the Kd is at most 0.0107 nM, the on-rate constant (kon) came to 4.69e+06 M⁻¹ s⁻¹ and the t1/2 was at least 3.85 h. In the test with Activin A [27], the koff is at most 5e-05 s⁻¹. The same molecule returned a koff in the test with Activin A [28] of at most 5e-05 s⁻¹.

B3: H4H10448P2 (antibody, human IgG4, V domains shown)
VH: QVQLQESGPGLVKPSETLSLTCTVSGGTFSSHFWSWIRQPPGKGLEWIGYIFYTGGTNHNPSLKSRVTISIDTSKNQFSLKLTSVTAADTAVYYCARARSGITFGGVIVPGSFDIWGQGTMVTVSS
VL: not shown
Regarding B3, in the test with Activin A [25], the “Activin A-20 nM (RU)” value was 64 RU, the Kd is at most 0.0105 nM, the kon stood at 4.76e+06 M⁻¹ s⁻¹ and the t1/2 is at least 3.85 h. In the test with Activin A [26], the “Activin A-20 nM (RU)” value was found to be 49 RU, the dissociation constant Kd was at most 0.00636 nM, the kon is 7.86e+06 M⁻¹ s⁻¹ and the t1/2 is at least 3.85 h. The molecule also came in with a koff with Activin A [27] of at most 5e-05 s⁻¹. In addition, the koff in the test with Activin A [28] is at most 5e-05 s⁻¹.

B4: H4H10452P2 (antibody, human IgG4, V domains shown)
VH: QVQLQESGPGLVKPSETLSLTCTVSGGSFSSHFWNWIRQSPGRGLEWIGYIYYSGGTNYNPSFKSRVTMSVDTSKNQFSLKLSSVTAADTAVFYCARARSGITFGGVLVPGSFDIWGQGTMVTVSS
VL: not shown
Take B4: in the test with Activin A [25], the “Activin A-20 nM (RU)” value was determined as 55 RU, the Kd is at most 0.0107 nM, the kon was found to be 4.69e+06 M⁻¹ s⁻¹ and the t1/2 is at least 3.85 h. In the test with Activin A [26], the “Activin A-20 nM (RU)” value was 43 RU, the Kd was at most 0.0063 nM, the kon worked out at 7.94e+06 M⁻¹ s⁻¹ and the t1/2 is at least 3.85 h. This molecule also showed a koff in the test with Activin A [27] of at most 5e-05 s⁻¹. The molecule further returned a koff in the test with Activin A [28] of at most 5e-05 s⁻¹.

The record behind these values is patent US20150037339A1 (Regeneron, published 2015).
